Our source for the stoichiometry N and time constant of tetramer dissociation after photoexcitation values is paper doi:10.1101/2025.08.13.669063.

Experiment [1] addresses cobalamin binding domains of Thermus thermophilus CarH (TtCBD) (Thermus thermophilus). Put plainly: crystal structure.
Experiment [2] shares this target. Put plainly: time-resolved X-ray solution scattering.

As usually defined, the stoichiometry N is a count of units in the complex or per binding partner.

On to “cobalamin binding domains of Thermus thermophilus CarH (TtCBD) (domain or fragment)”, for which the stoichiometry N in experiment [1] and in experiment [2] was 4 in each case. This substance also came in with a time constant of tetramer dissociation after photoexcitation in experiment [2] of 620 ms.
